# Reference: US20050197296A1, “Agents for preventing and treating thrombocytopenia” (CHUGAI SEIYAKU KABUSHIKI KAISHA, priority 1996, published 2005)
# B1: human PTH(1-84) (protein, UniProt P01270 32-115, looked up)
# Parathyroid hormone: SVSEIQLMHNLGKHLNSMERVEWLRKKLQDVHNFVALGAPLAPRDAGSQRPRKKEDNVLVESHEKSLGEADKADVNVLTKAKSQ
# modifications: Parathyroid hormone
# B2: parathyroid hormone (PTH): PTH as studied in the literature report by Meytes et al; form and species not printed (protein, UniProt P01270 32-115, looked up)
# Parathyroid hormone: B1 Parathyroid hormone
# modifications: Parathyroid hormone
# What was measured:
# [1] = system: platelet counts; assay: Test for single-dose administration to mouse (platelet increasing action); assay type: in vivo, C57B1/6N mice; conditions: single dose 10 μg/kg through the tail vein, 6 and 9 h after the administration
# Procedure: Nine-week old male C57B1/6N mice as purchased from Japan Charles River Co. Ltd. were used in the experiment.
# Human PTH(1-84) was dissolved in a citrate buffer (pH 5; containing 0.05% of Tween 80) at final concentrations of 1, 0.2 and 0.04 ˜g/mL so as to prepare the drug solutions to be administered.
# Each of the thus prepared drug solutions and a control (citrate buffer) was administered to 15 mice through the tail vein in a volume of 10 mL/kg. […] The administration was initiated at 10 a.m.
# After 3, 6 and 9 hours of the administration, five mice were picked up at random from each group of animals and blood samples were withdrawn through the orbital vein. At 10 a.m. on the same day, separate blood samples were taken from untreated mice (four in number) to obtain the preadministration value. Peripheral corpuscle counts were obtained with an automatic corpuscle counter F-800 (TOA MEDICAL ELECTRONICS CO., LTD
# [2] = system: platelet count; assay: Test for daily administration to mouse (platelet increasing action); assay type: in vivo, C57B1/6N mice; conditions: subcutaneous once a day
# Procedure: Nine-week old male C57B1/6N mice as purchased from Japan Charles River Co., Ltd. were used in the experiment.
# Drug solutions to be administered were prepared basically by the same procedure as in Example 1 to give drug concentrations of 5, 20 and 80 μg/mL.
# The mice under test were divided into four groups, which were administered subcutaneously with the three drug solutions and a control (citrate buffer) once a day in a volume of 10 mL/kg. […] The administration was initiated at 10 a.m.
# On days 5, 7 and 9 after the start of administration, five or six mice were picked up at random from each group of animals and blood samples were withdrawn through the orbital vein. The sampling of blood was timed to occur 24 h of the final administration. Separate blood samples were taken from untreated mice (five in number) to obtain the value for normal mouse. Peripheral corpuscle counts were obtained with an automatic corpuscle counter F-800(TOA MEDICAL ELECTRONICS CO., LTD.).
# [3] = system: platelet count; assay: Effectiveness of PTH derivative, daily administration to mouse; assay type: in vivo, C57B1/6N mice; conditions: 200 μg/kg subcutaneous once a day for six days, blood 24 h after final administration
# Procedure: Ten-week old male C57B1/6N mice as purchased from Japan Charles River Co., Ltd. were used in the experiment.
# Drug solutions to be administered were prepared basically from human PTH(1-84) and human PTH(1-34) by the same procedure as in Example 1 to give a drug concentration of 20 μg/mL.
# Eighteen mice were divided into three groups, which were administered subcutaneously with the two drug solutions and a control (citrate buffer) for six days on a once-a-day basis in a volume of 10 mL/kg. […] The administration was initiated at 10 a.m.
# After 24 h of the final administration, a blood sample was withdrawn from each mouse through the orbital vein. Peripheral corpuscle counts were obtained with an automatic corpuscle counter F-800 (TOA MEDICAL ELECTRONICS CO., LTD).
# [4] = system: platelet count; assay: Test for daily administration to rabbit (platelet increasing action); assay type: in vivo, Japanese albino rabbits JW/CSK; conditions: 200 μg/kg subcutaneous daily
# Procedure: Six 12-15 week old male Japanese albino rabbits JW/CSK were used in the experiment. The animals were individually kept in aluminum rabbit bracket cages Rb-1 (350^w×500^d×350^h mm) in a vavarium in a specific pathogen-free environment under the following conditions: temperature, 24±2° C.; humidity, 50±10%; illumination, light turned on at 5:00 and turned off at 19:00; ventilation, 15 changes/hr. Each animal was supplied with 120 g of a radiation-sterilized feed for rabbits RM (purchased from Funahashi Farm) per day. The animals were also allowed to drink to tap water ad libitum from an automatic water feeder.
# Human PTH(1-84) was administered in a volume of 2 mL/vial at a concentration of 200 μg/mL. A solvent was also supplied in a volume of 2 mL/vial. Both the drug and the control were stored at −135° C. until use.
# PTH (200 μg/kg) was administered to the rabbits subcutaneously at the back of their neck for 13 consecutive days. The solvent was similarly administered in the same volume as the dose of a rh-PTH solution calculated from their body weight.
# Blood samples (0.5 mL) were withdrawn from the rabbits through the lateral auricular vein before the administration and on days 2, 6, 9 and 13 during the administration period. […]
# [5] = system: BFU-E (precursor cells of erythrocytes); conditions: literature report, J. Clin. Invest. Vol. 67, 1263-1269:1981; cited from earlier work
# [6] = system: CFU-GM (precursor cells of granulocytes and macrophages); conditions: literature report, J. Clin. Invest. Vol. 67, 1263-1269:1981; cited from earlier work
Molecule,platelet counts versus control [1],"platelet count ([2]; 200 and 800 μg/kg, day 5)","platelet count versus control ([2]; all treated groups (50, 200 and 800 μg/kg), day 7)",platelet increasing action [3],platelet count relative to the initial value ([4]; day 2 until day 6),platelet count relative to the initial level ([4]; day 13),in vitro colony formation by BFU-E [5],in vitro colony formation by CFU-GM [6]
B1,significant increase in platelet counts over the control,tendency to increase,significantly higher in platelet count than the control,platelet increasing action,two to four times as great as the initial value,substantially returned to the initial level,,
B2,,,,,,,interfered with the in vitro colony formation,interfered with the in vitro colony formation
